According to US20220242939A1 (BIOARCTIC, published 2022):
Non-standard residues stand in square brackets, D forms with d. No end group written: not given here. Ahx = NCCCCCC(=O)O

Key:
[1] = target: 23D5, recombinant IgG2c antibody; assay: inhibition ELISA, second protocol; antibody at 0.05 ug/ml pre-incubated with the peptide in solution (4-fold dilutions from 10000 ng/ml), then on a plate coated with G200-BSA peptide; blank reduced OD 405 nm
Protocol: (§1) […] of each synthetic ApoE peptide, recombinant C-terminal ApoE fragment G200-HIS and full-length ApoE4 were prepared by 4-fold dilution starting from 1000 ng/ml in 96 well storage plates (30 μl final volume). Each recombinant antibody to be tested was added (30 μl) to the serial dilutions of each of the synthetic ApoE peptides, G200-HIS or full-length ApoE4 at a final concentration of 0.05 μg/ml per well. Samples were pre-incubated for 45 min at room temperature with shaking (900 rpm).
(§2) The pre-incubated samples were transferred (50 μl/well) to the blocked ELISA plates, and plates were incubated for 25 min at room temperature without shaking. Plates were washed as described above. Alkaline phosphatase conjugated anti-mouse IgG detection antibody (Mabtech, cat. no. 3310-4) was diluted 1:1000 and added to each plate (50 μl/well). The plate was sealed and incubated with shaking (900 rpm) for 45 min at room temperature and subsequently washed as described above. Alkaline phosphatase substrate (50 μl/well) was added to the plate and the optical density was read every 15 min at a wavelength of 405 nm for up to 120 min. The IC50 values were determined from a log inhibitor concentration response curve (FIG. 17).
(§3) In addition, a second inhibition ELISA with the ApoE peptides conjugated to BSA was run, in which the starting concentration of the antigens in solution was increased 10-fold. i.e. the starting concentration of the N-terminal neo-epitope of synthetic ApoE peptides conjugated to BSA and starting at amino acid L198 (SEQ ID NO:52), A199 (SEQ ID NO:51) or G200 (SEQ ID NO:50), or to BSA-conjugated negative control peptide (SEQ ID NO:53), was 10000 ng/ml. Furthermore, a 4-fold serial dilution of antigen was used, the plates were blocked with protein-free blocking solution (Pierce) for 90 min, the pre-incubated samples were incubated on the coated plates for 10 min (instead of 25 min), and the optical density was read every 10 min (instead of every 15 min). IC50 values were determined from a log inhibitor concentration response curve (FIG. 20).

[2] = target: T1, 7B10, recombinant IgG2c antibody; assay: as above
T1 construct: also called 7610
T1 sequence (VH, as listed by the source, chain 1 of 2): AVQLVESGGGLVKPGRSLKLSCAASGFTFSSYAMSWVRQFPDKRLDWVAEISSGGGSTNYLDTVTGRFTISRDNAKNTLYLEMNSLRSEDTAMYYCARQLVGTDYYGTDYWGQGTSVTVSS
T1 sequence (VL, as listed by the source, chain 2 of 2): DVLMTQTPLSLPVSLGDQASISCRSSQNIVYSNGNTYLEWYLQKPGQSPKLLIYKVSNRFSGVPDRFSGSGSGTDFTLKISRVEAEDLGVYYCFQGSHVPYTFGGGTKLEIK
Protocol: as §1, §2, §3

[3] = target: 17G4, recombinant IgG2c antibody; assay: as above
17G4, recombinant IgG2c antibody, sequence (VH, as listed by the source, chain 1 of 2): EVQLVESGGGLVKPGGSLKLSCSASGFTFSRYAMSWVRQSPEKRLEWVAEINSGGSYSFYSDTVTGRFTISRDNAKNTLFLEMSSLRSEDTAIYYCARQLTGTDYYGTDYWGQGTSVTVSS
17G4, recombinant IgG2c antibody, sequence (VL, as listed by the source, chain 2 of 2): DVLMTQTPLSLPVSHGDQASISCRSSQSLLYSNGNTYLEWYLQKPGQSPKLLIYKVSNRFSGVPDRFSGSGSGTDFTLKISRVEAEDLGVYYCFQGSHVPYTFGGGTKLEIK
Protocol: as §1, §2, §3

[4] = target: 28F2, recombinant IgG2c antibody; assay: as above
28F2, recombinant IgG2c antibody, sequence (VH, as listed by the source, chain 1 of 2): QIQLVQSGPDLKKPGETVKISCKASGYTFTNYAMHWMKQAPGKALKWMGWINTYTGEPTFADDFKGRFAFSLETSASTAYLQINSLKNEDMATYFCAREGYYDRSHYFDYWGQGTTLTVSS
28F2, recombinant IgG2c antibody, sequence (VL, as listed by the source, chain 2 of 2): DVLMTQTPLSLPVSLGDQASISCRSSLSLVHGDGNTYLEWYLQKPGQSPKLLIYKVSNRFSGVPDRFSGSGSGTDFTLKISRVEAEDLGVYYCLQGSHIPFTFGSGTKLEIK
Protocol: as §1, §2, §3

[5] = target: 7C7, recombinant IgG2c antibody; assay: as above
7C7, recombinant IgG2c antibody, sequence (VH, as listed by the source, chain 1 of 2): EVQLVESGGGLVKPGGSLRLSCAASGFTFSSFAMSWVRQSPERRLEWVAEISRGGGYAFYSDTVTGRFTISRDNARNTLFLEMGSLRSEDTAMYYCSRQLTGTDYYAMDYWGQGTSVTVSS
7C7, recombinant IgG2c antibody, sequence (VL, as listed by the source, chain 2 of 2): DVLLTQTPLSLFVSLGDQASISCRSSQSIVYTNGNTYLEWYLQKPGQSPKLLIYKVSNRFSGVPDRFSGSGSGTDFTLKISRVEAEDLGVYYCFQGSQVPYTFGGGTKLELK
Protocol: as §1, §2, §3

[6] = target: 38G9, monoclonal anti-A199 antibody; assay: inhibition ELISA; antibody at 0.05 ug/ml pre-incubated with the peptide in solution (4-fold dilutions from 10000 ng/ml), then on a plate coated with A199-BSA peptide; blank reduced OD 405 nm
38G9, monoclonal anti-A199 antibody, sequence (VH, as listed by the source, chain 1 of 2): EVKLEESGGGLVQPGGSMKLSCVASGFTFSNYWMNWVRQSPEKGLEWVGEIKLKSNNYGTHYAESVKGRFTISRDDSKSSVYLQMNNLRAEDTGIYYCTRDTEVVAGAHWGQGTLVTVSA
38G9, monoclonal anti-A199 antibody, sequence (VL, as listed by the source, chain 2 of 2): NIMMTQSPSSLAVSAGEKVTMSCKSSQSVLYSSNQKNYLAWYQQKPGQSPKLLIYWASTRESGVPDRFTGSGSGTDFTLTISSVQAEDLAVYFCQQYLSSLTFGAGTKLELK
Protocol: (§4) 0.5 μg/ml solution of N-terminal neo-epitope peptide A199 (SEQ ID NO:51) conjugated to BSA was prepared by dilution in PBS. 50 μl/well were added to an ELISA half-area 96 well microtiter plate, the plate was sealed with adhesive sealer and incubated over night at 4° C. After discarding the solution, the plates were blocked with protein-free blocking solution (Pierce) (150 μl/well) at room temperature for 90 min with shaking (900 rpm). The blocked plate was washed four times with washing buffer containing 0.28 mM NaH₂PO₄, 2.5 mM Na₂HPO₄, 150 mM NaCl, 0.1% TWEEN®-20 and 0.0075% Kathon CG.
(§5) Serial dilutions of each synthetic ApoE peptide were prepared by 4-fold dilution starting from 10000 ng/ml in 96 well storage plates (30 μl final volume). Each purified monoclonal antibody to be tested was added (30 μl) to the serial dilutions of each of the synthetic ApoE peptides at a final concentration of 0.05 μg/ml per well. Samples were pre-incubated for 45 min at room temperature with shaking (900 rpm).
as §2, with “10” for “25”, “10” for “15”, “29).” for “17).”

[7] = target: 36A12, monoclonal anti-A199 antibody; assay: as above
36A12, monoclonal anti-A199 antibody, sequence (VH, as listed by the source, chain 1 of 2): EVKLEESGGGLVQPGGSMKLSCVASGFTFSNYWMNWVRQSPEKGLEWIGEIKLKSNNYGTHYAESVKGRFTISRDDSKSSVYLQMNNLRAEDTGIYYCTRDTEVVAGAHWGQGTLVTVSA
36A12, monoclonal anti-A199 antibody, sequence (VL, as listed by the source, chain 2 of 2): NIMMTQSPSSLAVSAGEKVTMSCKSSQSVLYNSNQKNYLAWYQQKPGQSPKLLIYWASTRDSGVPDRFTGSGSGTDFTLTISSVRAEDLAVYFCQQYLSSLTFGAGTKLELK
Protocol: as §4, §5
as §2, with “10” for “25”, “10” for “15”, “29).” for “17).”

[8] = target: 6F4, monoclonal anti-L198 antibody; assay: inhibition ELISA; antibody at 0.05 ug/ml pre-incubated with the peptide in solution (4-fold dilutions from 10000 ng/ml), then on a plate coated with L198-BSA peptide; blank reduced OD 405 nm
6F4, monoclonal anti-L198 antibody, sequence (VH, as listed by the source, chain 1 of 2): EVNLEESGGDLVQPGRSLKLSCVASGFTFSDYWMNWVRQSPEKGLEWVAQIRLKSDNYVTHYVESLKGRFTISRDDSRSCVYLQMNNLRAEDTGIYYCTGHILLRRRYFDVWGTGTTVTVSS
6F4, monoclonal anti-L198 antibody, sequence (VL, as listed by the source, chain 2 of 2): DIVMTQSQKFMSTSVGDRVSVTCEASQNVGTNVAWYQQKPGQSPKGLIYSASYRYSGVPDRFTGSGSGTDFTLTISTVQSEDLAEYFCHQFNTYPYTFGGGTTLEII
Protocol: as §4, with “L198” for “A199”, “NO:52)” for “NO:51)”
as §5, with “recombinant” for “purified monoclonal”
as §2, with “10” for “25”, “10” for “15”, “25).” for “17).”

[9] = target: 6F4, monoclonal anti-L198 antibody; assay: inhibition ELISA: antigen in solution varied, antibody 6F4 at 0.05 µg/ml, plate coated with L198-BSA peptide
Protocol: as §4, with “L198” for “A199”, “NO:52)” for “NO:51)”
as §5, with “recombinant” for “purified monoclonal”
(§6) The pre-incubated samples were transferred (50 μl/well) to the blocked ELISA plates, and plates were incubated for 10 min at room temperature without shaking. […] Alkaline phosphatase substrate (50 μl/well) was added to the plate and the optical density was read every 10 min at a wavelength of 405 nm for up to 120 min. The IC50 values were determined from a log inhibitor concentration response curve (FIG. 25).

[10] = target: 15F8, monoclonal anti-L198 antibody; assay: inhibition ELISA: antigen in solution varied, antibody 15F8 at 0.05 µg/ml, plate coated with L198-BSA peptide
15F8, monoclonal anti-L198 antibody, sequence (VH, as listed by the source, chain 1 of 2): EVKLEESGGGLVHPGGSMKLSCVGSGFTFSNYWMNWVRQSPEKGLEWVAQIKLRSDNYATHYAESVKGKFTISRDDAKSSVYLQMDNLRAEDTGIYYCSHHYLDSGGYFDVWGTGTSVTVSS
15F8, monoclonal anti-L198 antibody, sequence (VL, as listed by the source, chain 2 of 2): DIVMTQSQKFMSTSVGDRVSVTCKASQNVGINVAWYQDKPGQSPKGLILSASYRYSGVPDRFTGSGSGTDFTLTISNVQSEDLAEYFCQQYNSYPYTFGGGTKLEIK
Protocol: as §4, with “L198” for “A199”, “NO:52)” for “NO:51)”
as §5, with “recombinant” for “purified monoclonal”
as §6

[11] = target: 12B1, monoclonal anti-L198 antibody; assay: inhibition ELISA: antigen in solution varied, antibody 12B1 at 0.05 µg/ml, plate coated with L198-BSA peptide
12B1, monoclonal anti-L198 antibody, sequence (VH, as listed by the source, chain 1 of 2): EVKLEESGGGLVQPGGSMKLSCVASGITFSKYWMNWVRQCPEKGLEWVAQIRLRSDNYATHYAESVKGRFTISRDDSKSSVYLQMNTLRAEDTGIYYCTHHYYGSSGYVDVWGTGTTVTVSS
12B1, monoclonal anti-L198 antibody, sequence (VL, as listed by the source, chain 2 of 2): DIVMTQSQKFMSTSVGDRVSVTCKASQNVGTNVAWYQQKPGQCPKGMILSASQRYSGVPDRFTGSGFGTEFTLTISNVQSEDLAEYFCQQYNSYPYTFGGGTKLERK
Protocol: as §4, with “L198” for “A199”, “NO:52)” for “NO:51)”
as §5, with “recombinant” for “purified monoclonal”
as §6

[12] = target: 63F6, monoclonal anti-A199 antibody; assay: inhibition ELISA; antibody at 0.05 ug/ml pre-incubated with the peptide in solution (4-fold dilutions from 10000 ng/ml), then on a plate coated with A199-BSA peptide; blank reduced OD 405 nm
63F6, monoclonal anti-A199 antibody, sequence (VH, as listed by the source, chain 1 of 2): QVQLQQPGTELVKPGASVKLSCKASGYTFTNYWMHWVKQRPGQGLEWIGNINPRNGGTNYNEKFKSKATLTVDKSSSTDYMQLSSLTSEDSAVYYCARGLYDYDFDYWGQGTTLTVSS
63F6, monoclonal anti-A199 antibody, sequence (VL, as listed by the source, chain 2 of 2): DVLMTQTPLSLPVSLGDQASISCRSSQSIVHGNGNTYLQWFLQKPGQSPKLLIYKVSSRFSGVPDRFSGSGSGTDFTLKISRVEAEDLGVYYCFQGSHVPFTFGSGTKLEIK
Protocol: as §4, §5
as §2, with “10” for “25”, “10” for “15”, “29).” for “17).”

[13] = target: 8B3, monoclonal anti-L198 antibody; assay: inhibition ELISA: antigen in solution varied, antibody 8B3 at 0.05 µg/ml, plate coated with L198-BSA peptide
8B3, monoclonal anti-L198 antibody, sequence (VH, as listed by the source, chain 1 of 2): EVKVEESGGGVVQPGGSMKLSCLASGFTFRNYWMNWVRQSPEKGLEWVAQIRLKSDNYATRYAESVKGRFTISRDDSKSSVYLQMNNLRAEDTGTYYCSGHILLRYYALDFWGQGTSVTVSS
8B3, monoclonal anti-L198 antibody, sequence (VL, as listed by the source, chain 2 of 2): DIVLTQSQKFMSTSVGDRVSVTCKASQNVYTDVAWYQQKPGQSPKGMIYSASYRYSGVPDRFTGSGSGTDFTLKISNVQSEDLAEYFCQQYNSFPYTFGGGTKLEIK
Protocol: as §4, with “L198” for “A199”, “NO:52)” for “NO:51)”
as §5, with “recombinant” for “purified monoclonal”
as §6

[14] = target: 15H11, monoclonal anti-L198 antibody; assay: inhibition ELISA: antigen in solution varied, antibody 15H11 at 0.05 µg/ml, plate coated with L198-BSA peptide
15H11, monoclonal anti-L198 antibody, sequence (VH, as listed by the source, chain 1 of 2): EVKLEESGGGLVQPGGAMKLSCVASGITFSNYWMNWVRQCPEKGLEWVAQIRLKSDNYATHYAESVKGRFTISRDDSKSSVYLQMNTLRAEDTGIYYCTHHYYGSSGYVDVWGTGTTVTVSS
15H11, monoclonal anti-L198 antibody, sequence (VL, as listed by the source, chain 2 of 2): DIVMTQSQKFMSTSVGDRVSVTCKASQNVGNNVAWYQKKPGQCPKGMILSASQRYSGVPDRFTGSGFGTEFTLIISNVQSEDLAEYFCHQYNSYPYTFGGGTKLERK
Protocol: as §4, with “L198” for “A199”, “NO:52)” for “NO:51)”
as §5, with “recombinant” for “purified monoclonal”
as §6

[15] = target: 23D5, recombinant IgG2c antibody; assay: inhibition ELISA; antibody at 0.05 ug/ml pre-incubated with the antigen in solution (3-fold dilutions from 1000 ng/ml), then on a plate coated with G200-BSA peptide; blank reduced OD 405 nm
Protocol: as §1, §2

[16] = target: T1, 7B10, recombinant IgG2c antibody; assay: as above
Protocol: as §1, §2

[17] = target: 17G4, recombinant IgG2c antibody; assay: as above
Protocol: as §1, §2

[18] = target: 28F2, recombinant IgG2c antibody; assay: as above
Protocol: as §1, §2

[19] = target: 7C7, recombinant IgG2c antibody; assay: as above
Protocol: as §1, §2

23D5, recombinant IgG2c antibody, sequence (VH, as listed by the source, chain 1 of 2): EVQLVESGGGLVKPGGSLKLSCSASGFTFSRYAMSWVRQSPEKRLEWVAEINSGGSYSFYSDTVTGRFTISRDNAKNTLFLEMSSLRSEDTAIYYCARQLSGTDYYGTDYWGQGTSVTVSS

Binder	binding result [1]	binding result [2]	binding result [3]	binding result [4]	binding result [5]	binding result [6]	binding result [7]	binding result [8]	IC50 [9] [ng/mL]	IC50 [10] [ng/mL]	IC50 [11] [ng/mL]	binding result [12]	IC50 [13] [ng/mL]	IC50 [14] [ng/mL]	binding result [15]	binding result [16]	binding result [17]	binding result [18]	binding result [19]
AATVGSLAGQPLQER[Ahx]C (not fully specified (residue 17); printed as AATVGSLAGQPLQER-Acp-C; also: C-terminal Cys conjugated to BSA carrier, BSA carrier; also called 192-206 BSA-conjugated peptide) [negative control peptide AATVGSLAGQPLQER-Acp-C (SEQ ID NO:53) conjugated to BSA]	no binding (tested: 10000 ng/ml)	no binding (tested: 10000 ng/ml)	no binding (tested: 10000 ng/ml)	no binding (tested: 10000 ng/ml)	no binding (tested: 10000 ng/ml)	no binding (tested: 10000 ng/ml)	no binding (tested: 10000 ng/ml)	no binding (tested: 10000 ng/ml)	–	–	–	–	–	–	–	–	–	–	–
LAGQPL[Ahx]C (not fully specified (residue 8); printed as LAGQPL-Acp-C; also: C-terminal Cys conjugated to BSA carrier, BSA carrier; also called L198-BSA peptide) [L198 N-terminal neo-epitope peptide LAGQPL-Acp-C (SEQ ID NO:52) conjugated to BSA]	–	–	–	–	–	no binding (tested: 10000 ng/ml)	no binding (tested: 10000 ng/ml)	–	8.2	6.5	4.8	no binding (tested: 10000 ng/ml)	3.1	4.5	no binding (tested: 1000 ng/ml)	no binding (tested: 1000 ng/ml)	no binding (tested: 1000 ng/ml)	no binding (tested: 1000 ng/ml)	no binding (tested: 1000 ng/ml)
